Data set [1] is described as follows: Bayesian deconvolution of 24-hr pituitary-hormone concentration profiles (secretion and elimination parameters). In kind it is in vivo, human. As to conditions: 24-hr 10-min sampled profile, ACTH, LH young, GH person. How it is done: The experimentalist requires an automated procedure by which to simultaneously detect pulse times and estimate secretion/kinetic features. […] In each case, discrete blood sampling (i.e., the withdrawal lasting 5-10 sec) was performed every 10 min for 24 hr. [Integrative sampling (continuous withdrawal) yields a time-integrated or flattened version of the impulse, thereby underestimating absolute peak values and overestimating interpulse valleys.] If the set (Y1, Y2, . . . , Yn) denotes observed hormone concentrations, n would be 145 for 10-min sampling over 24 hr. […] One would like to find values (a,b) so that, for a specified probability, e.g., 0.95, one can make the following probability statement:
Assuming that pulse-onset times are given by ℑm={T^1, T^2 . . . , T^m}, Keenan and Veldhuis give a model to estimate secretory dynamics conditional on pulse times (Keenan & Veldhuis, 1998; Keenan et al., 2000; Keenan et al., 1998). The primary components are basal and pulsatile secretion, a flexible secretory-burst shape, random effects on burst mass, biexponential elimination kinetics and combined experimental uncertainty in sample collection, processing and assay. We suppose that M, the amount of hormone secreted in the j^th burst (mass per unit distribution volume), is the sum of a finite amount of minimally available stores, a linear function of hormone accumulation over the preceding interpulse interval, and a random effect allowing for biological variability in individual burst mass:
In the present Bayesian approach, an a priori (prior) probability distribution is placed on the parameter space: Θ×ℑ, where ℑ={ℑN, ℑN-1, . . . , ℑp} in Eq. [16] and Θ denotes the parameter set in Eq. [14]. The prior density on Θ×ℑ is assumed to be a product: π×λ, with a uniform prior on Θ, π(θ)∝ to a Constant. The prior on ℑ is the Akaike Information Criterion (AIC) penalty for the number of pulse times m, λ(ℑm)∝exp(−m). […] Measured data Y=(Y1, Y2, . . . , Yn)′ are then incorporated via a likelihood function (Eq. [15]), resulting in the a posteriori (posterior) probability distribution on Θ×ℑ:
The algorithm of the present paper utilizes a mathematically justified procedure for simulating from the joint (Θ×ℑ) posterior distribution (Eq. [18]). The basic idea is that, for a given hormone concentration profile, one generates an array of (e.g. 100) simulations from the posterior distribution, which allows one then to make probabilistic statements about the parameters of pulse times, secretion and elimination.
total basal secretion as: n×β0, and total pulsatile as the difference. Repeated sampling of (θ,ℑm), and calculation of total pulsatile secretion (for each), produces a probability histogram approximating the posterior distribution for total pulsatile secretion, given an observed concentration profile. […] Specifically, in reference to Eq. [9]
Histograms are based on 100 simulations from the joint posterior distribution.

The conditions of data set [2]: injected GnRH, i.v. bolus; cited from earlier work.
For data set [3] the following is noted: oral dosing in healthy men; cited from earlier work.
For data set [4], the system named is total Te. As to conditions: overnight after oral KTCZ 1000 mg with DEX 0.75 mg at midnight; reduced from 530±61; cited from earlier work.
Data set [5] has as its system Pulsatile LH secretion. Description: Expected pulsatile LH secretion in KTCZ/DEX paradigm with Te addback. The format is in vivo, human. How it is done:
Volunteers (Forty (40) healthy men ages 18-80 years) arrived at a testing facility by 1730 hours and stayed two nights. At 1800-2000 hours, two i.v. catheters were placed in (contralateral) antecubital veins to allow concomitant saline or Te infusion and blood sampling. […] This regimen can reduce the concentration of total Te from 530±61 to 85±13 ng/dL overnight. […] Visits were greater than or equal to two weeks apart. The order of the four visits was prospectively randomized, and interventions were double-blind.
To enforce pulsatile negative feedback, 12 consecutive pulses of Te or saline was given i.v. on top of the basal infusion. […] To monitor LH and Te concentrations, blood samples (1.25 mL) were withdrawn every 10 min for 16 hours beginning at 0800 hours, FIG. 7.
Te was infused at a constant rate of 1.0 mg/24 hours from midnight (MN) until MN. There were 12 superimposed pulses each at a session-defined dose of zero (saline), 167, 333 or 500 μg delivered over 6 min every two hours from MN to 2200 hours. Resultant total (basal+pulsatile) Te infusion rates were equivalent to 1, 3, 5 and 7 mg/24 hours, thus spanning sub-, mid- and high-physiological Te production rates in healthy young men (normal interquartile range 4-6 mg/day) (Veldhuis et al., Physiological Basis of Aging and Geriatrics, 3rd edition, 213-231, Boca Raton, CRC Press (2003); Veldhuis, Reproductive Endocrinology, 4th edition, 622-631, Philadelphia, W.B. Saunders Co., (1999)). Crystalline testosterone was dissolved in 100% ethanol, diluted to less than 0.3% ethanol in normal saline, and microfiltered for i.v. infusion after sterility and pyrogen testing.
Estimates based on data described elsewhere (Zwart et al., J. Clin. Endocrinol. Metab. 82:2062-2069 (1997)) indicate that statistical power can exceed 90% to detect an effect of age that explains 33% or more of the variability in Te feedback sensitivity if 40 subjects are studied. The predicted slope±SD of feedback sensitivity regressed on age is (×10^−3) 1.5±0.25. […] Because an a priori postulate is that age reduces feedback sensitivity, a test of significance can be one-tailed; and because both sensitivity and efficacy can be examined, the experiment-wise critical value is P≦0.025.

[6] abbreviates: 0.05 quantile of posterior distribution.
Where [7] appears, read: 0.25 quantile of posterior distribution.
Setting [8] is: 0.50 quantile of posterior distribution.
[9] abbreviates: 0.75 quantile of posterior distribution.

Regarding growth hormone [GH], the “Slow Half-Life” value in data set [1] (setting [6]) was determined as 28 min; in data set [1] (setting [7]), 31 min; in data set [1] (setting [8]) it was 31 min; in data set [1] (setting [9]), 31 min.
With “adrenocorticotropin hormone (SYSMEHFRWGKPVGKKRRPVKVYPNGAEDESAEAFPLEF; Corticotropin; UniProt P01189 138-176, looked up) [ACTH, endogenous pituitary hormone measured in blood of a person]”, the “Slow Half-Life” value in data set [1] (setting [6]) stood at 9 min; in data set [1] (setting [7]), 11 min; in data set [1] (setting [8]), 15 min; in data set [1] (setting [9]) it was 19 min; in data set [1] (0.95 quantile of posterior distribution) it was 25 min.
Consider gonadotropin-releasing hormone [GnRH], for which, in data set [2], the first-phase half-life is 3 to 7 min and the second-phase half-life was 35 to 50 min.
Consider `CC(=O)N1CCN(c2ccc(OCC3COC(Cn4ccnc4)(c4ccc(Cl)cc4Cl)O3)cc2)CC1` (centres unmarked) [KTCZ, ketoconazole], for which, in data set [3], the half-life result is “six”. Also, the “concentration of total Te” value in data set [4] was 85 ± 13 ng/dL.
For the compound `C[C@]12CC[C@H]3[C@@H](CCC4=CC(=O)CC[C@@]43C)[C@@H]1CC[C@@H]2O` [Te, testosterone], the “Pulsatile LH secretion” value in data set [5] (oldest subjects, 1 mg Te addback, free Te decrement 15 ng/dL) is 2.0 IU/L/min; in data set [5] (oldest subjects, 7 mg Te addback (start of expected increase)) it was 0.65 IU/L/min; in data set [5] (youngest subjects, 1 mg Te addback, free Te decrement 17 ng/dL) it was 3.5 IU/L/min; in data set [5] (youngest subjects, 7 mg Te addback (start of expected increase)) it was 0.50 IU/L/min.

The values are drawn from US20110046887A1, “METHOD FOR ASSESSING PATHWAY PRODUCT LEVELS” (priority 2006, published 2011).
